Columns and labels:
[1] = target: anti-idiotype mIgG Fab-GPI-DAF fusion protein on transfected SP2/0 cells; experiment: cell-based ELISA, SM03 on transfected SP2/0 GPI clone 1 (surface expression graded -), anti-human Fc-HRP
[2] = target: anti-idiotype mIgG Fab-GPI-DAF fusion protein on transfected SP2/0 cells; experiment: cell-based ELISA, SM03 on transfected SP2/0 GPI clone 5 (surface expression graded +), anti-human Fc-HRP
[3] = target: anti-idiotype mIgG Fab-GPI-DAF fusion protein on transfected SP2/0 cells; experiment: cell-based ELISA, SM03 on transfected SP2/0 GPI clone 6 (surface expression graded -), anti-human Fc-HRP
[4] = target: anti-idiotype mIgG Fab-GPI-DAF fusion protein on transfected SP2/0 cells; experiment: cell-based ELISA, SM03 on transfected SP2/0 GPI clone 7 (surface expression graded -), anti-human Fc-HRP
[5] = target: anti-idiotype mIgG Fab-GPI-DAF fusion protein on transfected SP2/0 cells; experiment: cell-based ELISA, SM03 on transfected SP2/0 GPI clone 8 (surface expression graded -), anti-human Fc-HRP
[6] = target: anti-idiotype mIgG Fab-GPI-DAF fusion protein on transfected SP2/0 cells; experiment: cell-based ELISA, SM03 on transfected SP2/0 GPI clone 9 (surface expression graded -), anti-human Fc-HRP
[7] = target: anti-idiotype mIgG Fab-GPI-DAF fusion protein on transfected SP2/0 cells; experiment: cell-based ELISA, SM03 on transfected SP2/0 GPI clone 10 (surface expression graded -), anti-human Fc-HRP
[8] = target: anti-idiotype mIgG Fab-GPI-DAF fusion protein on transfected SP2/0 cells; experiment: cell-based ELISA, SM03 on transfected SP2/0 GPI clone 3 (surface expression graded +++), anti-human Fc-HRP
[9] = target: anti-idiotype mIgG Fab-GPI-DAF fusion protein on transfected SP2/0 cells; experiment: cell-based ELISA, SM03 on transfected SP2/0 GPI clone 4 (surface expression graded +++), anti-human Fc-HRP
[10] = target: anti-idiotype mIgG Fab-glycophorin A fusion protein on transfected SP2/0 cells; experiment: cell-based ELISA, SM03 on transfected SP2/0 GlycoA clone 1 (surface expression graded -), anti-human Fc-HRP
Chain of anti-idiotype mIgG Fab-glycophorin A fusion protein on transfected SP2/0 cells (heavy, as listed by the source limits assumed, chain 1 of 2): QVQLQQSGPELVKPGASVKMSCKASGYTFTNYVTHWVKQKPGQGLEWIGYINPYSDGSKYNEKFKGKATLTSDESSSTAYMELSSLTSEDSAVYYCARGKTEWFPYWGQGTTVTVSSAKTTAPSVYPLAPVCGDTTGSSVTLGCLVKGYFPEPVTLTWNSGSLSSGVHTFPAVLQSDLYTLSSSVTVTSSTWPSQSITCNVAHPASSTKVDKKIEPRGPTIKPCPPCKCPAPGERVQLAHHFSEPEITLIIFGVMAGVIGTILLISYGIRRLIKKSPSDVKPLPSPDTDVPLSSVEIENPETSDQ
Chain of anti-idiotype mIgG Fab-glycophorin A fusion protein on transfected SP2/0 cells (light, as listed by the source limits assumed, chain 2 of 2): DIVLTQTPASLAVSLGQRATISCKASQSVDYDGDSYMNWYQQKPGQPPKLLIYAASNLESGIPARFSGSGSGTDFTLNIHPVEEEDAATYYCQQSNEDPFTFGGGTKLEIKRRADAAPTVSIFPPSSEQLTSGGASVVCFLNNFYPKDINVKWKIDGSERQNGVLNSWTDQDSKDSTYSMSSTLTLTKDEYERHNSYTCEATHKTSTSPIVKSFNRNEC

[11] = target: anti-idiotype mIgG Fab-glycophorin A fusion protein on transfected SP2/0 cells; experiment: cell-based ELISA, SM03 on transfected SP2/0 GlycoA clone 3 (surface expression graded -), anti-human Fc-HRP
[12] = target: anti-idiotype mIgG Fab-glycophorin A fusion protein on transfected SP2/0 cells; experiment: cell-based ELISA, SM03 on transfected SP2/0 GlycoA clone 8 (surface expression graded -), anti-human Fc-HRP
[13] = target: anti-idiotype mIgG Fab-glycophorin A fusion protein on transfected SP2/0 cells; experiment: cell-based ELISA, SM03 on transfected SP2/0 GlycoA clone 9 (surface expression graded -), anti-human Fc-HRP
[14] = target: anti-idiotype mIgG Fab-glycophorin A fusion protein on transfected SP2/0 cells; experiment: cell-based ELISA, SM03 on transfected SP2/0 GlycoA clone 10 (surface expression graded -), anti-human Fc-HRP
[15] = target: anti-idiotype mIgG Fab-glycophorin A fusion protein on transfected SP2/0 cells; experiment: cell-based ELISA, SM03 on transfected SP2/0 GlycoA clone 14 (surface expression graded -), anti-human Fc-HRP
[16] = target: anti-idiotype mIgG Fab-glycophorin A fusion protein on transfected SP2/0 cells; experiment: cell-based ELISA, SM03 on transfected SP2/0 GlycoA clone 5 (surface expression graded +++), anti-human Fc-HRP
[17] = target: anti-idiotype mIgG Fab-glycophorin A fusion protein on transfected SP2/0 cells; experiment: cell-based ELISA, SM03 on transfected SP2/0 GlycoA clone 15 (surface expression graded +++), anti-human Fc-HRP
[18] = target: anti-idiotype IgD-TM on transfected SP2/0 cells; experiment: cell-based ELISA, SM03 10 ug/ml on transfected SP2/0 Clone AB4 (surface expression graded -), anti-human Fc-HRP
Chain of anti-idiotype IgD-TM on transfected SP2/0 cells (heavy, as listed by the source limits assumed, chain 1 of 2): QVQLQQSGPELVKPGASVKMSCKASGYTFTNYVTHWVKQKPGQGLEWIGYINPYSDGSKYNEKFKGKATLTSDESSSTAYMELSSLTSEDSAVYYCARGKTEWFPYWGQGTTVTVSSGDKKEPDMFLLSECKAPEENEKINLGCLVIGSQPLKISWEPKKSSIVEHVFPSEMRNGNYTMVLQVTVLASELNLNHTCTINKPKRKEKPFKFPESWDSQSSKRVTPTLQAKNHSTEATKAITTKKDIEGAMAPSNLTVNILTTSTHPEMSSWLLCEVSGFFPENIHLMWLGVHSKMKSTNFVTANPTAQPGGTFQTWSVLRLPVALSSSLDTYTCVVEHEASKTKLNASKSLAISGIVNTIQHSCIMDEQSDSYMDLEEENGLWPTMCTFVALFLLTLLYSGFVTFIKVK
Chain of anti-idiotype IgD-TM on transfected SP2/0 cells (light, as listed by the source limits assumed, chain 2 of 2): as the sequence (light, as listed by the source limits assumed, chain 2 of 2) above

[19] = target: anti-idiotype IgD-TM on transfected SP2/0 cells; experiment: cell-based ELISA, SM03 10 ug/ml on transfected SP2/0 Clone AF9 (surface expression graded -), anti-human Fc-HRP
[20] = target: anti-idiotype IgD-TM on transfected SP2/0 cells; experiment: cell-based ELISA, SM03 10 ug/ml on transfected SP2/0 Clone BB4 (surface expression graded -), anti-human Fc-HRP
[21] = target: anti-idiotype IgD-TM on transfected SP2/0 cells; experiment: cell-based ELISA, SM03 10 ug/ml on transfected SP2/0 Clone BB5 (surface expression graded -), anti-human Fc-HRP
[22] = target: anti-idiotype IgD-TM on transfected SP2/0 cells; experiment: cell-based ELISA, SM03 10 ug/ml on transfected SP2/0 Clone BF9 (surface expression graded -), anti-human Fc-HRP
[23] = target: anti-idiotype IgD-TM on transfected SP2/0 cells; experiment: cell-based ELISA, SM03 10 ug/ml on transfected SP2/0 Clone AG5 (surface expression graded +++), anti-human Fc-HRP
[24] = target: T1, BSA (UniProt P02769 25-607); experiment: phage ELISA, 1 ug BSA coated per well, anti-M13-HRP detection
T1 construct: also called control protein (BSA)
T1 sequence (P02769 25-607 limits assumed): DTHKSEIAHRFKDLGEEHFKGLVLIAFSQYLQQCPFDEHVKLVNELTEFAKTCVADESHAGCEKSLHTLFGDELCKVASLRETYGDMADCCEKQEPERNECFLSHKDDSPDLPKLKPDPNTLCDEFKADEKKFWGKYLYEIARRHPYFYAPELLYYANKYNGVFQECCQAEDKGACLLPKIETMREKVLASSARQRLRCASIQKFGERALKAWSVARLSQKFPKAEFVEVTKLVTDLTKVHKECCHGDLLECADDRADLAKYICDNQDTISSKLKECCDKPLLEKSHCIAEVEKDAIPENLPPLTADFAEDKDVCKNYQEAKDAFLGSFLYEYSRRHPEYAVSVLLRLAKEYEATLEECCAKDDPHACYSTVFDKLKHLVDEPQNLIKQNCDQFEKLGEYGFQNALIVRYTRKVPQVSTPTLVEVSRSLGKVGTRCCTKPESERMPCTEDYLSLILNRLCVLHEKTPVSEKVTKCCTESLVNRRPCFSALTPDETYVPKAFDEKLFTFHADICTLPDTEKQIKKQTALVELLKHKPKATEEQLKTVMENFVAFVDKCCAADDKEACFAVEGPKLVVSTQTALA
Procedure: Phages that survived panning were rescued. The binding specificities of selected phages were evaluated by Phage-ELISA using the target anti-CD22 antibodies RFB4, SM03, and framework-patched (humanized) SM06 and other control antibodies as antigens. […] After washing five times with borate washing buffer, pH8.0, horse radish peroxidase (HRP)-conjugated anti-M13 mouse antibody (Amersham) at a dilution fold of 3,000 was added.

Chain of anti-idiotype mIgG Fab-GPI-DAF fusion protein on transfected SP2/0 cells (heavy, as listed by the source): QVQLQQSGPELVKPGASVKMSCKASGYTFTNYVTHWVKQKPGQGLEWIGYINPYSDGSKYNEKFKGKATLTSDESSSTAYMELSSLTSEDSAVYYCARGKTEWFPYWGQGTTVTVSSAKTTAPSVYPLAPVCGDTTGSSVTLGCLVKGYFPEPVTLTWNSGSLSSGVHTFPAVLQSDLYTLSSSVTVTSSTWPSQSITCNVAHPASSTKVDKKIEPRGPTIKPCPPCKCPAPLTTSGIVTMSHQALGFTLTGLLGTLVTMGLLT

Molecule: SM03 chimeric anti-CD22 antibody
- OD450 nm [1]: 0.623 OD450 nm
- OD450 nm [2]: 0.977 OD450 nm
- OD450 nm [3]: 0.736 OD450 nm
- OD450 nm [4]: 0.7 OD450 nm
- OD450 nm [5]: 0.618 OD450 nm
- OD450 nm [6]: 0.618 OD450 nm
- OD450 nm [7]: 0.85 OD450 nm
- OD450 nm [8]: 3.64 OD450 nm
- OD450 nm [9]: 3.77 OD450 nm
- OD450 nm [10]: 0.579 OD450 nm
- OD450 nm [11]: 0.406 OD450 nm
- OD450 nm [12]: 0.284 OD450 nm
- OD450 nm [13]: 0.716 OD450 nm
- OD450 nm [14]: 0.498 OD450 nm
- OD450 nm [15]: 0.437 OD450 nm
- OD450 nm [16]: 3.53 OD450 nm
- OD450 nm [17]: 3.38 OD450 nm
- OD450 nm [18]: 0.428 OD450 nm
- OD450 nm [19]: 0.329 OD450 nm
- OD450 nm [20]: 0.501 OD450 nm
- OD450 nm [21]: 0.572 OD450 nm
- OD450 nm [22]: 0.459 OD450 nm
- OD450 nm [23]: 3.08 OD450 nm

B1: scFv Phage #3 (scFv)
scFv: QVQLVQSGPELVKPGASVKMSCKASGYTFTNYVTHWVKQKPGQGLEWIGYINPYSDGSKYNEKFKGKATLTSDESSSTAYMEVSSLTSEDSAVYYCARGKTEWFPYWGQGTPLTVSGGGGSGSGSSGGGGDIVLTQTPASLAVSLGQRATISCKASQSVDYDGDSYMNWYQQKPGQPPKLLIYAASNLESGIPARFSGSGSGTDFTLNIHPVEEEDAATYYCQQSNEDPFTFGGGTKLEI
notes: the phage coat protein fusion is not described; also called scFv isolated from phage #3
- binding result [24]: no binding
